Patent US12404328

Target: CD19 expressed on the surface of KILR Raji cells (UniProt P15391)
Test: cell-based or functional assay

CD19 expressed on the surface of KILR Raji cells, sequence (P15391 20-556 limits assumed): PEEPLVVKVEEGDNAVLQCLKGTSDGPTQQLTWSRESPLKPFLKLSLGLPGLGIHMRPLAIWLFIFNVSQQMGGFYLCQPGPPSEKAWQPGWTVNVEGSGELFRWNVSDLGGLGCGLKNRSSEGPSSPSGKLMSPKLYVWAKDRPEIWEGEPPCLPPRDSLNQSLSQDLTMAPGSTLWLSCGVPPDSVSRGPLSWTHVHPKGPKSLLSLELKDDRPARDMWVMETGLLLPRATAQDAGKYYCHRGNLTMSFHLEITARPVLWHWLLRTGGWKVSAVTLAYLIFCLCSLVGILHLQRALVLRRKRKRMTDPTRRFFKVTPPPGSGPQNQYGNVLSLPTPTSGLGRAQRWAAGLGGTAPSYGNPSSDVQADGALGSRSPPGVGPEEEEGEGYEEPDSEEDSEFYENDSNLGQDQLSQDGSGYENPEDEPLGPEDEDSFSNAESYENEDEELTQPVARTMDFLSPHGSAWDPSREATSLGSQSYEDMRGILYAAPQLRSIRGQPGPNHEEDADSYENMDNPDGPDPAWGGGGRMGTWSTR

blinatumomab (bispecific antibody)
EC50 of T cell-redirected killing of KILR Raji cells, +HSA (15 mg/mL): 10.8 ng/mL
EC50 of T cell-redirected killing of KILR Raji cells, -HSA: 2.85 ng/mL
Fold change (EC50 +HSA / EC50 -HSA) of killing of KILR Raji cells: 3.8 fold
